B1: β48Y-R: B13.14.1 TCR Vβ point mutant (protein)
TCR alpha: AQSVAQPEDQVNVAEGNPLTVKCTYSVSGNPYLFWYVQYPNRGLQFLLKYITGDNLVKGSYGFEAEFNKSQTSFHLKKPSALVSDSALYFCAVRDGRGGGNKLTFGTGTQLKVEL
TCR beta: GITQSPKYLFRKEGQNVTLSCEQNLNHDAMYWYRQDPGQGLRLIYRSQIVNDFQKGDIAEGYSVSREKKESFPLTVTSAQKNPTAFYLCASSPGQRDNSPLHFGNGTRLTVT
B2: β48Y-V: B13.14.1 TCR Vβ point mutant (protein)
TCR alpha: AQSVAQPEDQVNVAEGNPLTVKCTYSVSGNPYLFWYVQYPNRGLQFLLKYITGDNLVKGSYGFEAEFNKSQTSFHLKKPSALVSDSALYFCAVRDGRGGGNKLTFGTGTQLKVEL
TCR beta: GITQSPKYLFRKEGQNVTLSCEQNLNHDAMYWYRQDPGQGLRLIYVSQIVNDFQKGDIAEGYSVSREKKESFPLTVTSAQKNPTAFYLCASSPGQRDNSPLHFGNGTRLTVT
B3: β51I-R: B13.14.1 TCR Vβ point mutant (protein)
TCR alpha: AQSVAQPEDQVNVAEGNPLTVKCTYSVSGNPYLFWYVQYPNRGLQFLLKYITGDNLVKGSYGFEAEFNKSQTSFHLKKPSALVSDSALYFCAVRDGRGGGNKLTFGTGTQLKVEL
TCR beta: GITQSPKYLFRKEGQNVTLSCEQNLNHDAMYWYRQDPGQGLRLIYYSQRVNDFQKGDIAEGYSVSREKKESFPLTVTSAQKNPTAFYLCASSPGQRDNSPLHFGNGTRLTVT
B4: β51I-K: B13.14.1 TCR Vβ point mutant (protein)
TCR alpha: AQSVAQPEDQVNVAEGNPLTVKCTYSVSGNPYLFWYVQYPNRGLQFLLKYITGDNLVKGSYGFEAEFNKSQTSFHLKKPSALVSDSALYFCAVRDGRGGGNKLTFGTGTQLKVEL
TCR beta: GITQSPKYLFRKEGQNVTLSCEQNLNHDAMYWYRQDPGQGLRLIYYSQKVNDFQKGDIAEGYSVSREKKESFPLTVTSAQKNPTAFYLCASSPGQRDNSPLHFGNGTRLTVT
B5: β51I-M: B13.14.1 TCR Vβ point mutant (protein)
TCR alpha: AQSVAQPEDQVNVAEGNPLTVKCTYSVSGNPYLFWYVQYPNRGLQFLLKYITGDNLVKGSYGFEAEFNKSQTSFHLKKPSALVSDSALYFCAVRDGRGGGNKLTFGTGTQLKVEL
TCR beta: GITQSPKYLFRKEGQNVTLSCEQNLNHDAMYWYRQDPGQGLRLIYYSQMVNDFQKGDIAEGYSVSREKKESFPLTVTSAQKNPTAFYLCASSPGQRDNSPLHFGNGTRLTVT
B6: β51I-P: B13.14.1 TCR Vβ point mutant (protein)
TCR alpha: AQSVAQPEDQVNVAEGNPLTVKCTYSVSGNPYLFWYVQYPNRGLQFLLKYITGDNLVKGSYGFEAEFNKSQTSFHLKKPSALVSDSALYFCAVRDGRGGGNKLTFGTGTQLKVEL
TCR beta: GITQSPKYLFRKEGQNVTLSCEQNLNHDAMYWYRQDPGQGLRLIYYSQPVNDFQKGDIAEGYSVSREKKESFPLTVTSAQKNPTAFYLCASSPGQRDNSPLHFGNGTRLTVT
B7: β51I-A: B13.14.1 TCR Vβ point mutant (protein)
TCR alpha: AQSVAQPEDQVNVAEGNPLTVKCTYSVSGNPYLFWYVQYPNRGLQFLLKYITGDNLVKGSYGFEAEFNKSQTSFHLKKPSALVSDSALYFCAVRDGRGGGNKLTFGTGTQLKVEL
TCR beta: GITQSPKYLFRKEGQNVTLSCEQNLNHDAMYWYRQDPGQGLRLIYYSQAVNDFQKGDIAEGYSVSREKKESFPLTVTSAQKNPTAFYLCASSPGQRDNSPLHFGNGTRLTVT
B8: β51I-F: B13.14.1 TCR Vβ point mutant (protein)
TCR alpha: AQSVAQPEDQVNVAEGNPLTVKCTYSVSGNPYLFWYVQYPNRGLQFLLKYITGDNLVKGSYGFEAEFNKSQTSFHLKKPSALVSDSALYFCAVRDGRGGGNKLTFGTGTQLKVEL
TCR beta: GITQSPKYLFRKEGQNVTLSCEQNLNHDAMYWYRQDPGQGLRLIYYSQFVNDFQKGDIAEGYSVSREKKESFPLTVTSAQKNPTAFYLCASSPGQRDNSPLHFGNGTRLTVT
B9: β51I-Q: B13.14.1 TCR Vβ point mutant (protein)
TCR alpha: AQSVAQPEDQVNVAEGNPLTVKCTYSVSGNPYLFWYVQYPNRGLQFLLKYITGDNLVKGSYGFEAEFNKSQTSFHLKKPSALVSDSALYFCAVRDGRGGGNKLTFGTGTQLKVEL
TCR beta: GITQSPKYLFRKEGQNVTLSCEQNLNHDAMYWYRQDPGQGLRLIYYSQQVNDFQKGDIAEGYSVSREKKESFPLTVTSAQKNPTAFYLCASSPGQRDNSPLHFGNGTRLTVT
B10: β51I-D: B13.14.1 TCR Vβ point mutant (protein)
TCR alpha: AQSVAQPEDQVNVAEGNPLTVKCTYSVSGNPYLFWYVQYPNRGLQFLLKYITGDNLVKGSYGFEAEFNKSQTSFHLKKPSALVSDSALYFCAVRDGRGGGNKLTFGTGTQLKVEL
TCR beta: GITQSPKYLFRKEGQNVTLSCEQNLNHDAMYWYRQDPGQGLRLIYYSQDVNDFQKGDIAEGYSVSREKKESFPLTVTSAQKNPTAFYLCASSPGQRDNSPLHFGNGTRLTVT
B11: β51I-H: B13.14.1 TCR Vβ point mutant (protein)
TCR alpha: AQSVAQPEDQVNVAEGNPLTVKCTYSVSGNPYLFWYVQYPNRGLQFLLKYITGDNLVKGSYGFEAEFNKSQTSFHLKKPSALVSDSALYFCAVRDGRGGGNKLTFGTGTQLKVEL
TCR beta: GITQSPKYLFRKEGQNVTLSCEQNLNHDAMYWYRQDPGQGLRLIYYSQHVNDFQKGDIAEGYSVSREKKESFPLTVTSAQKNPTAFYLCASSPGQRDNSPLHFGNGTRLTVT
B12: β48Y-W: B13.14.1 TCR Vβ point mutant (protein)
TCR alpha: AQSVAQPEDQVNVAEGNPLTVKCTYSVSGNPYLFWYVQYPNRGLQFLLKYITGDNLVKGSYGFEAEFNKSQTSFHLKKPSALVSDSALYFCAVRDGRGGGNKLTFGTGTQLKVEL
TCR beta: GITQSPKYLFRKEGQNVTLSCEQNLNHDAMYWYRQDPGQGLRLIYWSQIVNDFQKGDIAEGYSVSREKKESFPLTVTSAQKNPTAFYLCASSPGQRDNSPLHFGNGTRLTVT
B13: β51I-G: B13.14.1 TCR Vβ point mutant (protein)
TCR alpha: AQSVAQPEDQVNVAEGNPLTVKCTYSVSGNPYLFWYVQYPNRGLQFLLKYITGDNLVKGSYGFEAEFNKSQTSFHLKKPSALVSDSALYFCAVRDGRGGGNKLTFGTGTQLKVEL
TCR beta: GITQSPKYLFRKEGQNVTLSCEQNLNHDAMYWYRQDPGQGLRLIYYSQGVNDFQKGDIAEGYSVSREKKESFPLTVTSAQKNPTAFYLCASSPGQRDNSPLHFGNGTRLTVT
B14: β48Y-S: B13.14.1 TCR Vβ point mutant (protein)
TCR alpha: AQSVAQPEDQVNVAEGNPLTVKCTYSVSGNPYLFWYVQYPNRGLQFLLKYITGDNLVKGSYGFEAEFNKSQTSFHLKKPSALVSDSALYFCAVRDGRGGGNKLTFGTGTQLKVEL
TCR beta: GITQSPKYLFRKEGQNVTLSCEQNLNHDAMYWYRQDPGQGLRLIYSSQIVNDFQKGDIAEGYSVSREKKESFPLTVTSAQKNPTAFYLCASSPGQRDNSPLHFGNGTRLTVT
B15: β51I-E: B13.14.1 TCR Vβ point mutant (protein)
TCR alpha: AQSVAQPEDQVNVAEGNPLTVKCTYSVSGNPYLFWYVQYPNRGLQFLLKYITGDNLVKGSYGFEAEFNKSQTSFHLKKPSALVSDSALYFCAVRDGRGGGNKLTFGTGTQLKVEL
TCR beta: GITQSPKYLFRKEGQNVTLSCEQNLNHDAMYWYRQDPGQGLRLIYYSQEVNDFQKGDIAEGYSVSREKKESFPLTVTSAQKNPTAFYLCASSPGQRDNSPLHFGNGTRLTVT
B16: β48Y-T: B13.14.1 TCR Vβ point mutant (protein)
TCR alpha: AQSVAQPEDQVNVAEGNPLTVKCTYSVSGNPYLFWYVQYPNRGLQFLLKYITGDNLVKGSYGFEAEFNKSQTSFHLKKPSALVSDSALYFCAVRDGRGGGNKLTFGTGTQLKVEL
TCR beta: GITQSPKYLFRKEGQNVTLSCEQNLNHDAMYWYRQDPGQGLRLIYTSQIVNDFQKGDIAEGYSVSREKKESFPLTVTSAQKNPTAFYLCASSPGQRDNSPLHFGNGTRLTVT
B17: β51I-L: B13.14.1 TCR Vβ point mutant (protein)
TCR alpha: AQSVAQPEDQVNVAEGNPLTVKCTYSVSGNPYLFWYVQYPNRGLQFLLKYITGDNLVKGSYGFEAEFNKSQTSFHLKKPSALVSDSALYFCAVRDGRGGGNKLTFGTGTQLKVEL
TCR beta: GITQSPKYLFRKEGQNVTLSCEQNLNHDAMYWYRQDPGQGLRLIYYSQLVNDFQKGDIAEGYSVSREKKESFPLTVTSAQKNPTAFYLCASSPGQRDNSPLHFGNGTRLTVT

Biological target: T1, KRAS-G12V antigen (RAS G12V-T15 peptide) (Homo sapiens, UniProt P01116, G12V)
T1 construct: endogenous in cells; host or cells: patient B13 autologous LCL cells (endogenous HLA-DP); the peptide is synthetic
Test: TCR mutant screening in Jurkat-NFAT-Luc cells with antigen-loaded B13 LCL cells (ONE Glo Luciferase)
Assay type: cell-based
Details: MHC-II binding region mutants; ratio to wild-type B13.14.1 TCR; 16-24 hours
Procedure: According to the table below, point mutations were performed on the Vα and Vβ of B13.14.1 TCR (including CDR3 region and […]), and a lentiviral vector shuttle plasmid encoding the TCR mutant was constructed, packaged with the standard lentiviral vector in 293T cells, and B13.14.1TCR mutant were subjected to function screening.
The TCR mutant (CDR3 region) lentiviral vector was transduced into Jurkat-NFAT-Luc cell line, and B13 LCL cells loaded with KRAS-G12V antigen (RAS G12V-T15 peptide, SEQ ID NO: 5) were used as antigen-presenting cells. 2×10^4 TCR-T and 2×10^4 antigen-loaded B13 LCL cells were co-cultured for 16-24 hours, and added with ONE Glo Luciferase to detect the expression of fluorescent signal, and the TCR Mut RLU/WT RLU (ratio of RLU signal value of TCR mutant to RLU signal value of wild-type B13.14.1 TCR) was calculated.
The TCR mutant (MHC-II binding region) lentiviral vector was transduced into the Jurkat-NFAT-Luc cell line, and B13 LCL cells loaded with KRAS-G12V antigen (RAS G12V-T15 peptide, SEQ ID NO: 5) were used as the antigen-presenting cells. 2×10^4 TCR-T and 2×10^4 antigen-loaded B13 LCL cells were co-cultured for 16-24 hours, the fluorescence signal expression was detected by adding ONE Glo Luciferase, and TCR Mut RLU/WT RLU (ratio of RLU signal value of TCR mutant to RLU signal value of wild-type B13.14.1TCR) was calculated.

Molecule	TCR Mut RLU/WT RLU
B1	62.60%
B2	63.15%
B3	9.90%
B4	3.82%
B5	26.84%
B6	19.95%
B7	27.57%
B8	32.79%
B9	12.98%
B10	4.56%
B11	34.95%
B12	32.62%
B13	5.49%
B14	34.02%
B15	6.28%
B16	40.26%
B17	25.46%
